Assay [1] has as its target Xiphophorus multilineatus melanocortin 4 receptor, wild-type A allele (Mc4r A) (X. multilineatus). The assay can be described thus: FRET or BRET; FRET-FLIM data of the fixed cells sorted by stoichiometry (<0.3, 0.3-0.5, 0.5-0.7, >0.7); dimerization grade by equation (8): β1AR as monomer baseline, CD28 at stoichiometry <0.3 as 100%. A general note: In BRET a luciferase serves as donor, and the signal depends on an acceptor being close.

Assay [2] has as its target Xiphophorus multilineatus melanocortin 4 receptor, mutant B2 allele (Mc4r B2) (X. multilineatus). The description is as above.
Assay [3] deals with Xiphophorus multilineatus melanocortin 4 receptor, mutant B1 allele (Mc4r B1) (X. multilineatus). The assay is described as above.
In assay [4] the target is Xiphophorus multilineatus melanocortin 4 receptor, wild-type A allele (Mc4r A) (X. multilineatus). Kind of assay: FRET or BRET; FRET-FLIM (pulsed interleaved excitation) on fixed HEK293T cells, basal or apical membrane; first-named protomer with C-terminal eGFP (donor, written as binder), second with C-terminal mCherry (acceptor, written as target); donor/acceptor ratio 1:5 at transfection; lifetime-based FRET efficiency Eτ against donor-only samples.

Assay [5] addresses Xiphophorus multilineatus melanocortin 4 receptor, mutant B2 allele (Mc4r B2) (X. multilineatus). The assay is described as above.
For assay [6], the target named is Xiphophorus multilineatus melanocortin 4 receptor, mutant B1 allele (Mc4r B1) (X. multilineatus). The assay is described as above.
Assay [7] has as its target Xiphophorus multilineatus melanocortin 4 receptor, wild-type A allele (Mc4r A) (X. multilineatus). The assay can be described thus: FRET or BRET; FRET-FLIM (pulsed interleaved excitation) on fixed HEK293T cells, basal or apical membrane; first-named protomer with C-terminal eGFP (donor, written as binder), second with C-terminal mCherry (acceptor, written as target); donor/acceptor ratio 1:1 at transfection; lifetime-based FRET efficiency Eτ against donor-only samples.

The target in assay [8] is Xiphophorus multilineatus melanocortin 4 receptor, mutant B1 allele (Mc4r B1) (X. multilineatus). Described as above.
The target in assay [9] is human chimeric MC4R chim7 (named Mut in this study) (human) (UniProt P32245). The assay can be described thus: FRET or BRET; FRET-FLIM (pulsed interleaved excitation) on fixed HEK293T cells, basal or apical membrane; first-named protomer with C-terminal eGFP (donor, written as binder), second with C-terminal mCherry (acceptor, written as target); donor/acceptor ratio 1:5 at transfection; lifetime-based FRET efficiency Eτ against donor-only samples.

This passage reports dimerization grade, FRET efficiency Eτ and donor (eGFP) lifetime; donor-only 2.13 ns results from publication PMC10667928.

Turning to “Xiphophorus multilineatus melanocortin 4 receptor, wild-type A allele (Mc4r A)”, the dimerization grade at stoichiometry 0.3-0.5 is 26% in [1], 28% in [2] and 28% in assay [3]. Also, the dimerization grade at stoichiometry <0.3 in assay [1] was determined as 76%; in [2], 52%; in assay [3], 52%. In addition, the FRET efficiency Eτ in [4] is 26.1%; in [5], 23.8%; in assay [6], 21.6%; in assay [7], 12.7%; in assay [8], 15.4%. Further, the donor (eGFP) lifetime; donor-only 2.13 ns in [4] was determined as 1.57 ns; in assay [7], 1.85 ns.
With “human MC4R wild-type (from UniProt P32245 1-332) (receptor)”, in [9], the FRET efficiency Eτ stood at 19.6%.
